Holding throughout (experiment): IEDB peptide-MHC binding, purified MHC/competitive/radioactivity; ≥ and ≤ were set here for values at or beyond the usual limits of such assays
Common to all, as to conditions: source organism: Bordetella pertussis

Test [1] concerns the target HLA-B*07:02.
Test [2] has as its target HLA-B*35:01.
For test [3], the target named is HLA-B*44:03.
Test [4] deals with HLA-A*02:01.
The target in test [5] is HLA-B*57:01.
Test [6] concerns the target HLA-B*53:01.

pIC50: −log10 of the molar value.

As to AAAEVAGAL, the negative-log IC50 (pIC50) in test [1] is 5.21; in test [2], 4.16; in test [3], 4.31.
Regarding AGKSLKKKN, in test [4], the negative logarithm of the IC50 (pIC50) was at most 4.11.
Consider APPGAGFIY, for which, in test [2], the negative-log IC50 (pIC50) is 4.78.
In the case of ECSGKQDCP, the negative-log IC50 (pIC50) in test [1] is 4.16.
For the sequence EHRMQEAVE, the pIC50 in test [4] was at most 4.11.
Regarding ESAEGRKIF, the pIC50 in test [3] is 4.44; in test [5], at most 4.15.
For the sequence FETYALTGI, the pIC50 in test [3] was 4.45.
For IPFQRALRL, the pIC50 in test [6] is 5.64.
As to IVIPPKALF, in test [5], the negative-log IC50 (pIC50) is 4.34.
Regarding MEYFKTPLP, the negative logarithm of the IC50 (pIC50) in test [3] was 4.55.
For the sequence VAAAADLAL, the pIC50 in test [6] was 4.66.
In the case of VPFCFGKDL, the negative logarithm of the IC50 (pIC50) in test [1] is 4.92.
Turning to VTMRYLASY, the pIC50 in test [2] is 4.45; in test [5] it was 7.85.
YDTGDLIAY: the negative-log IC50 (pIC50) in test [2] is 4.16.

Values taken from the Immune Epitope Database (IEDB).
